Laboratory results reported in patent US6579695B1.

Columns and labels:
[1] = biological target: N-terminal hexa-histidine-tagged SrfB1 domain of surfactin synthetase, apo-form (His6-SrfB1) (Bacillus subtilis) (UniProt Q04747)
[2] = biological target: Rhizobial NodF (wild-type) (Rhizobial)
[3] = biological target: Lactobacillus casei D-Alanyl carrier protein, apo-form (apo-Dcp) (Lactobacillus casei)
[4] = biological target: E. coli acyl carrier protein, apo-form (apo-ACP) (E. coli) (UniProt P0A6A8)

Substance	[14C]-L-valine-holo-SrfB1 covalent complex formed after preincubation of apo-SrfB1 with Sfp and CoASH [1]	[3H]phosphopantetheine incorporated, in vitro phosphopantetheinylation (ACP-NodF chimera)	% conversion, in vitro phosphopantetheinylation with [3H]CoA [2]	radioactivity incorporated into the protein fraction, 36 hour in vitro phosphopantetheinylation [3]	Km for apo-ACP, [3H]CoA radioassay [4]	apparent kcat of phosphopantetheinyl transfer, [3H]CoA radioassay [4]
Bacillus subtilis Sfp (enzyme)	14 fold	–	–	–	–	–
E. coli holo-acyl carrier protein synthase (ACPS) (enzyme)	–	122000 dpm	47%	1.04e+06	< 1 µM	10 min⁻¹
